Experiment [1] addresses Recombinant human Bcl-xL with a 25 amino acid truncation of its C-terminus (human) (UniProt Q07817). The experiment is described as follows: competition phage ELISA. (An ELISA detects its analyte on a solid surface through an enzyme-linked reagent.)
For experiment [2], the target named is mouse Mcl-1 with truncations of 151 amino acid residues at its N-terminus and 23 residues at its C-terminus (mouse) (UniProt P97287). Briefly: competition phage ELISA.

Data on 37 molecules can be found in US20090048164A1.

Sequence of Recombinant human Bcl-xL with a 25 amino acid truncation of its C-terminus (human) (Q07817 1-208): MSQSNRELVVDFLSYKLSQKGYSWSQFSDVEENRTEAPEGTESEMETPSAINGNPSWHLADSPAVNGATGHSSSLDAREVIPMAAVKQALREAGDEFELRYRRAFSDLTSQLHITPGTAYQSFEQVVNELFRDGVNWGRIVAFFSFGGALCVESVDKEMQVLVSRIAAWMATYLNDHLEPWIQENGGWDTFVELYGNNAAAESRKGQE
Sequence of mouse Mcl-1 with truncations of 151 amino acid residues at its N-terminus and 23 residues at its C-terminus (mouse) (P97287 152-308): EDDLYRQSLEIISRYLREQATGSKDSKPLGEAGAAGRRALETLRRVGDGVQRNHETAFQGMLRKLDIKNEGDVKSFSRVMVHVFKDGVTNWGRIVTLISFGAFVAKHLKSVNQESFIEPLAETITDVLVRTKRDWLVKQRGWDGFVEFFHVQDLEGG

B1: Bid BH3 R6A, phage-displayed (peptide)
peptide: QEDIIANIARHLAQVGDSMDRSIPPG
B1: in experiment [1], the Fold/wt was 3 fold and the IC50 was found to be 0.031 µM. In experiment [2], the Fold/wt was found to be 1 fold and the IC50 turned out to be 0.088 µM.

B2: Bad BH3 G26E, phage-displayed (peptide)
peptide: NLWAAQRYGRELRRMSDEFVDSFKKE
B2: in experiment [1], the Fold/wt came to 1 fold and the IC50 was found to be 0.003 µM.

B3: Bid BH3 R10A, phage-displayed (peptide)
peptide: QEDIIRNIAAHLAQVGDSMDRSIPPG
With B3, in experiment [1], the Fold/wt is 2 fold and the IC50 stood at 0.026 µM. In experiment [2], this molecule had a Fold/wt of 1 fold and an IC50 of 0.13 µM.

B4: Bad BH3 V20A, phage-displayed (peptide)
peptide: NLWAAQRYGRELRRMSDEFADSFKKG
As for B4, in experiment [1], the Fold/wt was determined as 1 fold and the IC50 was 0.003 µM.

B5: Bak BH3 G6E, phage-displayed (peptide)
peptide: PSSTMEQVGRQLAIIGDDINRRYDSE
On to B5, for which, in experiment [1], the Fold/wt is below 1 fold and the IC50 is 0.014 µM. In experiment [2], this molecule returned a Fold/wt of 1 fold and an IC50 of 0.011 µM.

B6: Bad BH3 K24A, phage-displayed (peptide)
peptide: NLWAAQRYGRELRRMSDEFVDSFAKG
For the molecule B6, in experiment [1], the Fold/wt stood at 2 fold and the IC50 turned out to be 0.004 µM.

B7: Bid BH3 P25A, phage-displayed (peptide)
peptide: QEDIIRNIARHLAQVGDSMDRSIPAG
As to B7, the Fold/wt in experiment [1] and in experiment [2] was 1 fold in each case. Also, the IC50 in experiment [1] came out at 0.016 µM; in experiment [2], 0.087 µM.

B8: Bak BH3 Q7A, phage-displayed (peptide)
peptide: PSSTMGAVGRQLAIIGDDINRRYDSE
Regarding B8, the Fold/wt in experiment [1] and in experiment [2] was 1 fold in each case. In addition, the IC50 was determined as 0.048 µM in experiment [1] and 0.02 µM in experiment [2].

B9: Bid BH3 wild type, phage-displayed (peptide)
peptide: QEDIIRNIARHLAQVGDSMDRSIPPG
With B9, in experiment [1], the Fold/wt amounted to 1 fold and the IC50 stood at 0.011 µM. In experiment [2], the Fold/wt was 1 fold and the IC50 turned out to be 0.099 µM.

B10: Bid BH3 S18A, phage-displayed (peptide)
peptide: QEDIIRNIARHLAQVGDAMDRSIPPG
On to B10, for which, in experiment [1], the Fold/wt is 1 fold and the IC50 was found to be 0.016 µM. In experiment [2], the Fold/wt was found to be 1 fold and the IC50 amounted to 0.104 µM.

B11: Bid BH3 R21A, phage-displayed (peptide)
peptide: QEDIIRNIARHLAQVGDSMDASIPPG
Turning to B11, the Fold/wt stood at 3 fold in experiment [1] and 1 fold in experiment [2]. For the same molecule, the IC50 came to 0.032 µM in experiment [1] and 0.132 µM in experiment [2].

B12: Bid BH3 E2A, phage-displayed (peptide)
peptide: QADIIRNIARHLAQVGDSMDRSIPPG
Regarding B12, in experiment [1], the Fold/wt amounted to 1 fold and the IC50 came out at 0.012 µM. In experiment [2], this molecule displayed a Fold/wt of 1 fold and an IC50 of 0.14 µM.

B13: Bid BH3 G26E, phage-displayed (peptide)
peptide: QEDIIRNIARHLAQVGDSMDRSIPPE
As to B13, in experiment [1], the Fold/wt turned out to be 2 fold and the IC50 was found to be 0.017 µM. In experiment [2], this molecule returned a Fold/wt of 1 fold and an IC50 of 0.094 µM.

B14: Bid BH3 I4A, phage-displayed (peptide)
peptide: QEDAIRNIARHLAQVGDSMDRSIPPG
In the case of B14, in experiment [1], the Fold/wt worked out at 3 fold and the IC50 worked out at 0.031 µM. In experiment [2], this molecule registered a Fold/wt of 1 fold and an IC50 of 0.134 µM.

B15: Bad BH3 S22A, phage-displayed (peptide)
peptide: NLWAAQRYGRELRRMSDEFVDAFKKG
For the molecule B15, in experiment [1], the Fold/wt was determined as 2 fold and the IC50 came out at 0.004 µM.

B16: Bid BH3 S22A, phage-displayed (peptide)
peptide: QEDIIRNIARHLAQVGDSMDRAIPPG
For B16, the Fold/wt in experiment [1] and in experiment [2] was 1 fold each time. Further, the IC50 in experiment [1] turned out to be 0.013 µM; in experiment [2], 0.128 µM.

B17: Bid BH3 D3A, phage-displayed (peptide)
peptide: QEAIIRNIARHLAQVGDSMDRSIPPG
With B17, in experiment [1], the Fold/wt turned out to be 1 fold and the IC50 came out at 0.015 µM. Besides, in experiment [2], the Fold/wt was 1 fold and the half-inhibitory concentration (IC50) was 0.096 µM.

B18: Bak BH3 P1A, phage-displayed (peptide)
peptide: ASSTMGQVGRQLAIIGDDINRRYDSE
As for B18, the Fold/wt in experiment [1] and in experiment [2] was 1 fold throughout. The IC50 is 0.031 µM in experiment [1] and 0.018 µM in experiment [2].

B19: Bak BH3 Q11A, phage-displayed (peptide)
peptide: PSSTMGQVGRALAIIGDDINRRYDSE
Consider B19, for which, in experiment [1], the Fold/wt was 5 fold and the IC50 is 0.238 µM. In addition, in experiment [2], the Fold/wt stood at 1 fold and the IC50 came out at 0.016 µM.

B20: Bid BH3 D20A, phage-displayed (peptide)
peptide: QEDIIRNIARHLAQVGDSMARSIPPG
B20: the Fold/wt in experiment [1] and in experiment [2] was 1 fold throughout. Further, the IC50 in experiment [1] came out at 0.013 µM; in experiment [2], 0.084 µM.

B21: Bid BH3 Q1A, phage-displayed (peptide)
peptide: AEDIIRNIARHLAQVGDSMDRSIPPG
As for B21, the results for the Fold/wt in experiment [1] and in experiment [2] were 2 fold and 1 fold, respectively. Further, the IC50 in experiment [1] came to 0.024 µM; in experiment [2], 0.079 µM.

B22: Bak BH3 S2A, phage-displayed (peptide)
peptide: PASTMGQVGRQLAIIGDDINRRYDSE
Turning to B22, in experiment [1], the Fold/wt is 1 fold and the 50% inhibitory concentration (IC50) is 0.028 µM. Also, in experiment [2], the Fold/wt turned out to be 1 fold and the IC50 was found to be 0.016 µM.

B23: Bak BH3 M5A, phage-displayed (peptide)
peptide: PSSTAGQVGRQLAIIGDDINRRYDSE
For B23, in experiment [1], the Fold/wt was below 1 fold and the IC50 was 0.015 µM. For the same molecule, in experiment [2], the Fold/wt was 1 fold and the IC50 is 0.018 µM.

B24: Bid BH3 P24A, phage-displayed (peptide)
peptide: QEDIIRNIARHLAQVGDSMDRSIAPG
B24: in experiment [1], the Fold/wt came out at 1 fold and the IC50 stood at 0.014 µM. In experiment [2], this molecule registered a Fold/wt of 1 fold and an IC50 of 0.09 µM.

B25: Bid BH3 Q14A, phage-displayed (peptide)
peptide: QEDIIRNIARHLAAVGDSMDRSIPPG
With B25, the Fold/wt in experiment [1] and in experiment [2] was 1 fold each time. The IC50 in experiment [1] was 0.013 µM; in experiment [2], 0.124 µM.

B26: Bak BH3 S3A, phage-displayed (peptide)
peptide: PSATMGQVGRQLAIIGDDINRRYDSE
Regarding B26, in experiment [1], the Fold/wt was found to be 1 fold and the IC50 came to 0.025 µM. In experiment [2], this molecule registered a Fold/wt of 1 fold and a 50% inhibitory concentration (IC50) of 0.017 µM.

B27: Bad BH3 K25A, phage-displayed (peptide)
peptide: NLWAAQRYGRELRRMSDEFVDSFKAG
Turning to B27, in experiment [1], the Fold/wt stood at 2 fold and the IC50 came to 0.004 µM.

B28: Bid BH3 I5A, phage-displayed (peptide)
peptide: QEDIARNIARHLAQVGDSMDRSIPPG
As to B28, in experiment [1], the Fold/wt was 2 fold and the IC50 came out at 0.021 µM. In experiment [2], this molecule showed a Fold/wt of 1 fold and an IC50 of 0.144 µM.

B29: Bak BH3 D18A, phage-displayed (peptide)
peptide: PSSTMGQVGRQLAIIGDAINRRYDSE
For B29, in experiment [1], the Fold/wt is 1 fold and the IC50 is 0.033 µM. In experiment [2], this molecule displayed a Fold/wt of 1 fold and an IC50 of 0.014 µM.

B30: Bid BH3 H11A, phage-displayed (peptide)
peptide: QEDIIRNIARALAQVGDSMDRSIPPG
Consider B30, for which the Fold/wt in experiment [1] and in experiment [2] was 1 fold each time. The IC50 in experiment [1] was found to be 0.009 µM; in experiment [2] it was 0.089 µM.

B31: Bak BH3 I14A, phage-displayed (peptide)
peptide: PSSTMGQVGRQLAAIGDDINRRYDSE
For B31, the Fold/wt in experiment [1] and in experiment [2] was 1 fold in each case. Also, the IC50 in experiment [1] came to 0.066 µM; in experiment [2], 0.014 µM.

B32: Bad BH3 F23A, phage-displayed (peptide)
peptide: NLWAAQRYGRELRRMSDEFVDSAKKG
Consider B32, for which, in experiment [1], the Fold/wt stood at 2 fold and the IC50 worked out at 0.004 µM.

B33: Bid BH3 I23A, phage-displayed (peptide)
peptide: QEDIIRNIARHLAQVGDSMDRSAPPG
As for B33, in experiment [1], the Fold/wt worked out at 1 fold and the IC50 was 0.015 µM. In experiment [2], the Fold/wt worked out at 1 fold and the IC50 was found to be 0.142 µM.

B34: Bak BH3 T4A, phage-displayed (peptide)
peptide: PSSAMGQVGRQLAIIGDDINRRYDSE
Consider B34, for which the Fold/wt in experiment [1] and in experiment [2] was 1 fold throughout. Further, the IC50 turned out to be 0.028 µM in experiment [1] and 0.014 µM in experiment [2].

B35: Bad BH3 D21A, phage-displayed (peptide)
peptide: NLWAAQRYGRELRRMSDEFVASFKKG
Turning to B35, in experiment [1], the Fold/wt turned out to be 1 fold and the IC50 was determined as 0.002 µM.

B36: Bak BH3 R10A, phage-displayed (peptide)
peptide: PSSTMGQVGAQLAIIGDDINRRYDSE
In the case of B36, in experiment [1], the Fold/wt is 3 fold and the IC50 worked out at 0.163 µM. In experiment [2], this molecule came in with a Fold/wt of 1 fold and an IC50 of 0.029 µM.

B37: Bid BH3 N7A, phage-displayed (peptide)
peptide: QEDIIRAIARHLAQVGDSMDRSIPPG
B37: the Fold/wt in experiment [1] and in experiment [2] was 1 fold in each case. Further, the results for the IC50 in experiment [1] and in experiment [2] were 0.01 µM and 0.054 µM, respectively.

As a reminder, the IC50 is the point on the concentration scale where inhibition reaches its midpoint.
